Earlier results in publication PMC10551901.

How the values were obtained:
[1] = target: Rab32 (Homo sapiens) (UniProt Q13637)
[2] = target: Rab38 (Homo sapiens) (UniProt P57729)
[3] = target: Rab29 (Homo sapiens) (UniProt O14966)
Sequence of UniProt O14966 (O14966 whole entry): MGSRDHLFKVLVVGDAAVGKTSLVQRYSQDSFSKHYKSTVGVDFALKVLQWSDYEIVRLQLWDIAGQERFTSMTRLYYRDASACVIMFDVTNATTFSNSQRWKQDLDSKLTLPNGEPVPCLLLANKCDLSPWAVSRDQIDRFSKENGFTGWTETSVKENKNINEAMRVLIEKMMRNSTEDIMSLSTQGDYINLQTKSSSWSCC

Sequence of UniProt P57729 (P57729 whole entry): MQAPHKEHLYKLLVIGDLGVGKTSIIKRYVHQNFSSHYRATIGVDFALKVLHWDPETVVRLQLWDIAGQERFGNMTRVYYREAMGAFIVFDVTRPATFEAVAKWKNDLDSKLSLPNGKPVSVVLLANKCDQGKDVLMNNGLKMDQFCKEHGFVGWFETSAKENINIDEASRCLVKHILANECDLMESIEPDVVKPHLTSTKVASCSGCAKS
Sequence of UniProt Q13637 (Q13637 2-225): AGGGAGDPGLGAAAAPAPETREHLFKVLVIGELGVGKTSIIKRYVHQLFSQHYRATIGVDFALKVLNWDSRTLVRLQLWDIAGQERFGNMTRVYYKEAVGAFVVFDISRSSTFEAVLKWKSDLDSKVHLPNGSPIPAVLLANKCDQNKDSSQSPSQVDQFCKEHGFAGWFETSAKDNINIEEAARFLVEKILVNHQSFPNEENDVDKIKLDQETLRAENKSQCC

- Kd [1]: 2 µM
- Kd [2]: 2 µM
- Kd [3]: 2 µM
Substance: LRRK2 1-552 (from UniProt Q5S007)
